Literature values, collected in paper PMC11939847.

Molecular target: BRD4 ET (Homo sapiens) (UniProt O60885)
Test: SPR

For LKIRL peptide, the Kd is given as 145 nM.
